# Test results reported in patent US20150158910A1 (Bristol-Myers Squibb, published 2015).
# T1: human PAR4 (protease activated receptor 4) (human, UniProt Q96RI0 48-385)
# T1 sequence (looked up): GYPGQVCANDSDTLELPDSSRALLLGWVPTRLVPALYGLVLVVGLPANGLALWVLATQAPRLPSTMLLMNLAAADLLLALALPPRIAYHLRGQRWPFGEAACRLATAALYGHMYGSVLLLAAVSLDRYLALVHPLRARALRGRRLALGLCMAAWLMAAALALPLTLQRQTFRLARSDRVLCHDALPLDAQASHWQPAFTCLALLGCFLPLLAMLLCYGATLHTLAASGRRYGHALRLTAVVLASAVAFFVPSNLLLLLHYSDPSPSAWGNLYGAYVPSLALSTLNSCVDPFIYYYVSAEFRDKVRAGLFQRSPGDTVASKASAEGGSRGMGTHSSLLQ
# T2: PAR1 (protease activated receptor 1), endogenous in HEK293 cells (UniProt P25116 42-425, limits assumed)
# T2 sequence (looked up): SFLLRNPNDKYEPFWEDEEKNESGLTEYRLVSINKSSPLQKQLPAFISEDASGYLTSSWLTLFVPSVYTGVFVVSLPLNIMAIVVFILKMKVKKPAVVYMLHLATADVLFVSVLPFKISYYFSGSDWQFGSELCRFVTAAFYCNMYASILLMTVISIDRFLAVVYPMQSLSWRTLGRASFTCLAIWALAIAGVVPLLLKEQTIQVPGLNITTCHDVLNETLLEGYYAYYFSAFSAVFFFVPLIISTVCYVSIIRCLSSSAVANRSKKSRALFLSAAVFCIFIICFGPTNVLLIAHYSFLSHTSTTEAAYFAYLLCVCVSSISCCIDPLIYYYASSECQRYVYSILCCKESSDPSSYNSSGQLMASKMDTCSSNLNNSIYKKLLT
# Assays:
# [1] = molecular target: T1, human PAR4 (protease activated receptor …); assay: cell-based or functional assay
# [2] = molecular target: T2, PAR1 (protease activated receptor 1), …; assay: cell-based or functional assay
Binder,EC50 (µM) FLIPR Assay [1] [µM],"EC50, calcium mobilization (FLIPR/FDSS) in HEK293 PAR4 cells, PAR1 counter screen [2] [µM]"
AYPGQVCAND [Peptide SEQ ID NO: 11],159,
SFFLRR [SFFLRR (SEQ ID NO: 35)],,0.6
AYPG [Peptide SEQ ID NO: 10],600,
AYPGWLVKNG (free N-terminus; C-terminal amide) [PAR4 agonist peptide SEQ ID NO: 2],4.8,
